# According to publication PMC4520770 (Journal of molecular biology, 2015):
# 5/6‑FAM = 5/6-fluorescein amidite
# Molecular target: KSBcl-2 (Kaposi's sarcoma-associated herpesvirus Bcl-2 homolog), c-myc-tagged (Kaposi's sarcoma-associated herpesvirus …, UniProt P90504 1-175)
# Test: fluorescence polarisation
row,Binder,Kd
1,{5/6‑FAM}-RPIIWIGQEISRVGDRENAYYAR-NH2 [BL6-22],1100 nM
2,{5/6‑FAM}-RPQIWIHQGLQRLGDGLNAYYAR-NH2 [KL6-7],1.6 nM
3,{5/6‑FAM}-RPQIWIHQGLQRLGAGLNAYYAR-NH2 [KL6-7_D3fA],180 nM
4,{5/6‑FAM}-RPNIWLTQRLQRTGDGLNAYYAR-NH2 [KScomp],13 nM
5,{5/6‑FAM}-RPQIWIHQGLQRLGDGLNAYKAR-NH2 [KL6-7_Y4eK],2.9 nM
6,{5/6‑FAM}-RPIIWIGQEISRVGDRENAYKAR-NH2 [BL6-22_Y4eK],750 nM
